# T1: murine ITK (endogenous, mouse thymocytes and CD4 T cells) (mouse, UniProt Q03526 1-625)
# T1 construct: Endogenous protein of BALB/c mouse cells; also called endogenous ITK
# T1 sequence: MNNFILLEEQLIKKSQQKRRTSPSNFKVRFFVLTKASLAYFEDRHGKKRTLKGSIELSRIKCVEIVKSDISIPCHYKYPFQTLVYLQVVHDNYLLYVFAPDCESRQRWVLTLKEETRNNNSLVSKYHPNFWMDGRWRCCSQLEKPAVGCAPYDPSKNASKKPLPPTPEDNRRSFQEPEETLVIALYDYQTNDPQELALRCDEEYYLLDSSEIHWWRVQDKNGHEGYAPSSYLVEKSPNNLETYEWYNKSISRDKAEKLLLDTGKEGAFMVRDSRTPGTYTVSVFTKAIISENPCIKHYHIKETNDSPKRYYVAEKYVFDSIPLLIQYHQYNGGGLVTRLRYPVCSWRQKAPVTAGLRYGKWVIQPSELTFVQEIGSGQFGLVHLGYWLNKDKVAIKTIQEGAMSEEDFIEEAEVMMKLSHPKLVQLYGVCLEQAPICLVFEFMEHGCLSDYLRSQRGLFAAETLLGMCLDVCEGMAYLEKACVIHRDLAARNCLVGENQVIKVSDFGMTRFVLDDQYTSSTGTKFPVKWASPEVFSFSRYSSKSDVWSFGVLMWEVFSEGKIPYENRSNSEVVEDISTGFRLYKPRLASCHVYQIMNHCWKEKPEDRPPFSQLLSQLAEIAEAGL
# B1: murine T-bet (endogenous, mouse thymocytes and Thp cells) (other, UniProt Q9JKD8 1-530, looked up)
# chain: MGIVEPGCGDMLTGTEPMPSDEGRGPGADQQHRFFYPEPGAQDPTDRRAGSSLGTPYSGGALVPAAPGRFLGSFAYPPRAQVAGFPGPGEFFPPPAGAEGYPPVDGYPAPDPRAGLYPGPREDYALPAGLEVSGKLRVALSNHLLWSKFNQHQTEMIITKQGRRMFPFLSFTVAGLEPTSHYRMFVDVVLVDQHHWRYQSGKWVQCGKAEGSMPGNRLYVHPDSPNTGAHWMRQEVSFGKLKLTNNKGASNNVTQMIVLQSLHKYQPRLHIVEVNDGEPEAACSASNTHVFTFQETQFIAVTAYQNAEITQLKIDNNPFAKGFRENFESMYASVDTSVPSPPGPNCQLLGGDPFSPLLSNQYPVPSRFYPDLPGQPKDMISQPYWLGTPREHSYEAEFRAVSMKPTLLPSAPGPTVPYYRGQDVLAPGAGWPVAPQYPPKMSPAGWFRPMRTLPMDPGLGSSEEQGSSPSLWPEVTSLQPEPSDSGLGEGDTKRRRISPYPSSGDSSSPAGAPSPFDKETEGQFYNYFPN
# notes: mature; Endogenous protein in nuclear extracts; also called endogenous T-bet
# Molecular target: T1, murine ITK (endogenous, mouse …)
# Test: IP of T-bet (4B10) from mouse thymocyte nuclear extracts, anti-ITK (2F12) blot
# Description: Most important, it was determined whether ITK interacted with T-bet under physiological conditions, by determining endogenous association in primary thymocytes. Single cell suspensions were obtained from thymi of BALB/c wt, T-bet^{-/-} and ITK−/− mice and nuclear extracts were prepared with NE-PER (Pierce, Rockford) according to the manufacturer's instructions. Two mg of nuclear extracts were incubated with anti-T-bet mAb, 4B10, in 150 mM NaCl. Immune complexes were resolved and probed with anti-ITK mAb (2F12), and sequentially with 4B10 after stripping. ITK expression was assayed in 30 μg of nuclear extracts. Initial attempts to perform coimmunoprecipitation experiments in naïve Thp cells 24 and 48 hours after TCR stimulation failed, likely secondary to both the low levels of endogenous T-bet expressed at this early time point and the competing processes of phosphorylation and dephosphorylation occurring in activated cells.
binder,measurement,value
B1,binding result,binds

# From patent publication US20060223116A1 (published 2006)
